Values quoted from earlier work, collected in article PMC7925366.
Values joined by “and” are separate entries in the source; they are usually repeats but may differ in a detail not shown here. Equal values may be shown once. Read-outs that look alike come from different tables or passages of the source.

How the values were obtained:
[1] = target: vimentin coils 1A and 1B (Homo sapiens) (UniProt P08670)
[2] = target: vimentin coils 1A and 1B (Homo sapiens) (UniProt P08670); test: MST

Sequence of UniProt P08670 (P08670 96-245): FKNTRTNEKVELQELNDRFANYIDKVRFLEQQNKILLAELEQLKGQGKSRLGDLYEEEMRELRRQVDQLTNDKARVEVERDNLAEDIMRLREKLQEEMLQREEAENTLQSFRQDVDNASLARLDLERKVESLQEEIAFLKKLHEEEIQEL

envoplakin PRD (from UniProt Q92817)
Kd [1]: 19 µM

periplakin linker domain (from UniProt O60437)
Kd [2]: 31 µM and 70 µM
